Test results: patent publication US20200190213A1 (REVITOPE, published 2020)

T1: Recombinant soluble EpCAM-His6 protein (UniProt P16422 24-265)
T1 chain: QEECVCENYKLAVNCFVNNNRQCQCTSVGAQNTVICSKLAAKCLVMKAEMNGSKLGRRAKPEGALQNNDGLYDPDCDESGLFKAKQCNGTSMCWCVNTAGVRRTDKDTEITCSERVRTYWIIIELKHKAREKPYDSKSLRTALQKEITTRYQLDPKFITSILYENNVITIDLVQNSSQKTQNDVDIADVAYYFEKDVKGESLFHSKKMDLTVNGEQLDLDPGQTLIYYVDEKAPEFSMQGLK

T2: Recombinant soluble EpCAM-His6 protein (UniProt P16422 24-265)
T2 construct: Coated on ELISA plates at 5 ug/ml; also called target antigen; not shown: His6 tag
T2 sequence (looked up): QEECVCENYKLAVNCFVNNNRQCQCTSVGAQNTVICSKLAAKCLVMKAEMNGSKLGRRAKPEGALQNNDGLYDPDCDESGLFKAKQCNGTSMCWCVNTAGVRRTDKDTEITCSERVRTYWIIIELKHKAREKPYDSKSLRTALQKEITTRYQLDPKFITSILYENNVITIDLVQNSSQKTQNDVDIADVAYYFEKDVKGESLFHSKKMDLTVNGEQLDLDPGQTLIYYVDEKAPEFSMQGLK

B1: CD3 Fc-fusion protein (murine IgG2a Fc) (Fc fusion)
chain: DGNEEMGGITQTPYKVSISGTTVILTCPQYPGSEILWQHNDKNIGGDEDDKNIGSDEDHLSLKEFSELEQSGYYVCYPRGSKPEDANFYLYLRARVCENCMEMD
notes: Soluble antigen of the bridging ELISA; not shown: murine IgG2a Fc

Key:
[1] = target: T1, Recombinant soluble EpCAM-His6 protein; assay: ELISA
[2] = target: T2, Recombinant soluble EpCAM-His6 protein; assay: ELISA on coated EpCAM-His6
Excerpt: TWICE molecules were engineered with the CD3 antibody SP34 and the CTLA4 antibody Ipilimumab and containing the hetero-Fc dimerization domain. In some examples, the anti-EpCAM antibody Solitomab was used as a Fab (TWICE277 and TWICE278), in other examples this antibody was used as a disulfide-stabilized Fv (dsFv, TWICE332 and TWICE335) by engineering a disulfide between the residue 44 of the VH and residue 100 of the VL (referring to Kabat numbering). The TWICE molecules were expressed and purified by Protein A affinity chromatography as described above, and their ability to bind to EpCAM was tested in an ELISA binding assay. Recombinant soluble EpCAM-His6 protein (produced in-house) was coated on ELISA plates at 5 μg/ml at 4° C. overnight and plates blocked with 1% BSA in PBS. Serial dilutions of TWICE were allowed to bind to EpCAM, and the bound TWICE were detected with a mouse anti-human Fc secondary (JDC-10 Abcam, ab99759).

[3] = target: T3, TWICE277 plus TWICE278, combined, not cleaved; assay: CD3 bridging ELISA on coated EpCAM
T3 construct: Two-component pair with intact hetero-Fc dimerization domains
Description: (§1) To test the domain swap and generation of functional paratopes (i.e., paired VH/VL domains) by TWICE pairs, a bridging ELISA assay was developed that measures the ability of TWICE pairs to bind target antigen and immune cell engaging molecules simultaneously. The schematic drawing in FIG. 9A illustrates the principle of this bridging ELISA. Briefly, the ELISA plates are coated with target antigen (recombinant soluble EpCAM, black hexagon) at a concentration of 5 μg/ml overnight. TWICE molecules can be activated by cleavage with FXa as described above, and then added to the plate at a serial dilution. The TWICE can bind to the target antigen with their target binding moiety, which is drawn as Fab (4 grey ovals) in FIG. 9A. Binding to the target antigen (EpCAM) on the plate brings the TWICEs in close proximity, which allows the immune cell binding domain and the complementary binding domain to undergo domain swap and form complete immune cell binding paratopes (black and white ovals in FIG. 9A). The functional complementation is measured by incubation with an antigen that is bound by the immune cell binding domain, such as CD3 (striped triangle in FIG. 9A). The antigen is provided as an Fc-fusion protein (murine IgG2a Fc), and can therefore be detected with an anti-mouse Fc secondary antibody. […]

[4] = target: B1; assay: CD3 bridging ELISA on coated EpCAM, CD3-Fc detected with anti-mouse Fc
Description: as §1

[5] = target: T4, CTLA-4 Fc-fusion protein (murine IgG2a Fc) (murine, UniProt P16410 36-161 (human entry), limits assumed); assay: CTLA-4 bridging ELISA on coated EpCAM, CTLA-4-Fc detected with anti-mouse Fc
T4 construct: Soluble antigen of the bridging ELISA; not shown: murine IgG2a Fc
Description: as §1

T4 sequence (P16410 36-161 limits assumed): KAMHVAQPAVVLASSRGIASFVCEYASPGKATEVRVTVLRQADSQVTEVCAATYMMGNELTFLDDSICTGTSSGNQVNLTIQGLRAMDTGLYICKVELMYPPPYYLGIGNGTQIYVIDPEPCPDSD

Row | EC50 [1] [nM] | binding result [2] | binding result [3] | binding result [4] | binding result [5] | Binder
1 | 1.04 | binds | – | – | – | TWICE335 (other, The anti-EpCAM targeting moiety is a disulfide-stabilized Fv (Cys at VH 44 and VL 100, Kabat); hetero-Fc dimerization domain; also called dsFv Ipilimumab VH SP34 VL Fc) heavy: EVQLLEQSGAELVRPGTSVKISCKASGYAFTNYWLGWVKQRPGHCLEWIGDIFPGSGNIHYNEKFKGKATLTADKSSSTAYMQLSSLTFEDSAVYFCARLRNWDEPMDYWGQGTTVTVSSGGGSGGGGSQVQLVESGGGVVQPGRSLRLSCAASGFTFSSYTMHWVRQAPGKGLEWVTFISYDGNNKYYADSVKGRFTISRDNSKNTLYLQMNSLRAEDTAIYYCARTGWLGPFDYWGQGTLVTVSSGGGIEGRGGGDKTHTCPPCPAPELLGGPSVFLFPPKPKDTLMISRTPEVTCVVVDVSHEDPEVKFNWYVDGVEVHNAKTKPREEQYQSTYRVVSVLTVLHQDWLNGKEYKCKVSNKALPAPIEKTISKAKGQPREPQVYTLPPSRDELTKNQVKLTCLVKGFYPSDIAVEWESNGQPENNYKTTPPVLDSDGSFFLYSLLTVDKSRWQQGNVFSCSVMHEALHNHYTQKSLSLSPG light: ELVMTQSPSSLTVTAGEKVTMSCKSSQSLLNSGNQKNYLTWYQQKPGQPPKLLIYWASTRESGVPDRFTGSGSGTDFTLTISSVQAEDLAVYYCQNDYSYPLTFGCGTKLEIKGGGGSGGGGSQAVVTQEPSLTVSPGGTVTLTCRSSTGAVTASNYANWVQQKPGQAPRGLIGGTNKRAPWTPARFSGSLLGGKAALTITGAQAEDEADYYCALWYSNLWVFGGGTKLTVLGGGIEGRGGGDKTHTCPPCPAPELLGGPSVFLFPPKPKDTLMISRTPEVTCVVVDVSHEDPEVKFNWYVDGVEVHNAKTKPREEQYQSTYRVVSVLTVLHQDWLNGKEYKCKVSNKALPAPIEKTISKAKGQPREPQVYTLPPSRDELTKNQVSLTCLVSGFYPSDIAVEWESNGQPENNYKTTPPVLDSDGSFKLYSKLTVDKSRWQQGNVFSCSVMHEALHNHYTQKSLSLSPG
2 | – | – | no binding | – | – | B1
3 | 1.21 | binds | – | no binding | no binding | TWICE278 (other, One TWICE component: anti-EpCAM (Solitomab) Fab, Ipilimumab VH, SP34 VL, FXa-cleavable linkers, hetero-Fc; Uncleaved in the EpCAM ELISA; In the bridging ELISA it was tested alone, also after FXa cleavage; also called Ipilimumab VH SP34 VL Fc) heavy: EVQLLEQSGAELVRPGTSVKISCKASGYAFTNYWLGWVKQRPGHGLEWIGDIFPGSGNIHYNEKFKGKATLTADKSSSTAYMQLSSLTFEDSAVYFCARLRNWDEPMDYWGQGTTVTVSSASTKGPSVFPLAPSSKSTSGGTAALGCLVKDYFPEPVTVSWNSGALTSGVHTFPAVLQSSGLYSLSSVVTVPSSSLGTQTYICNVNHKPSNTKVDKKVEPKSCDKTHTGGGGSGGGGSQVQLVESGGGVVQPGRSLRLSCAASGFTFSSYTMHWVRQAPGKGLEWVTFISYDGNNKYYADSVKGRFTISRDNSKNTLYLQMNSLRAEDTAIYYCARTGWLGPFDYWGQGTLVTVSSGGGIEGRGGGDKTHTCPPCPAPELLGGPSVFLFPPKPKDTLMISRTPEVTCVVVDVSHEDPEVKFNWYVDGVEVHNAKTKPREEQYQSTYRVVSVLTVLHQDWLNGKEYKCKVSNKALPAPIEKTISKAKGQPREPQVYTLPPSRDELTKNQVKLTCLVKGFYPSDIAVEWESNGQPENNYKTTPPVLDSDGSFFLYSLLTVDKSRWQQGNVFSCSVMHEALHNHYTQKSLSLSPG light: ELVMTQSPSSLTVTAGEKVTMSCKSSQSLLNSGNQKNYLTWYQQKPGQPPKLLIYWASTRESGVPDRFTGSGSGTDFTLTISSVQAEDLAVYYCQNDYSYPLTFGAGTKLEIKRTVAAPSVFIFPPSDEQLKSGTASVVCLLNNFYPREAKVQWKVDNALQSGNSQESVTEQDSKDSTYSLSSTLTLSKADYEKHKVYACEVTHQGLSSPVTKSFNRGECGGGGSGGGGSGGGGSQAVVTQEPSLTVSPGGTVTLTCRSSTGAVTASNYANWVQQKPGQAPRGLIGGTNKRAPWTPARFSGSLLGGKAALTITGAQAEDEADYYCALWYSNLWVFGGGTKLTVLGGGIEGRGGGDKTHTCPPCPAPELLGGPSVFLFPPKPKDTLMISRTPEVTCVVVDVSHEDPEVKFNWYVDGVEVHNAKTKPREEQYQSTYRVVSVLTVLHQDWLNGKEYKCKVSNKALPAPIEKTISKAKGQPREPQVYTLPPSRDELTKNQVSLTCLVSGFYPSDIAVEWESNGQPENNYKTTPPVLDSDGSFKLYSKLTVDKSRWQQGNVFSCSVMHEALHNHYTQKSLSLSPG
